# In publication PMC6211226, “Intracellular Signaling by the comRS System in Streptococcus mutans Genetic Competence” (mSphere, 2018):
# {BodipyFLX} = Bodipy FL-X fluorophore label on the DNA probe
# Tests used:
# [1] = biological target: XIP (sigX-inducing peptide), synthetic (Streptococcus mutans); assay: fluorescence polarisation; ComR titrated into 1 nM Bodipy FL-X-labelled PcomX stem-loop DNA probe with 10 µM XIP or ComS, 0.05 mg/ml salmon DNA, 1 mM EDTA, 37°C 20 min; together with competition by unlabeled DNA at 1.5 µM ComR; read-out is on the DNA probe, k1 and n of the ComR/peptide complex come from the fit of a two-step cooperative model
# [2] = biological target: ComS (full-length, 17 residues), synthetic (Streptococcus mutans); assay: as above
# [3] = biological target: ComR;XIP (Streptococcus mutans UA159;Streptococcus mutans) (UniProt Q8DWI6); assay: fluorescence polarization; conditions: Previously described reaction buffer (ref 53; composition not given) + 1 mM EDTA, 0.05 mg/ml salmon DNA, 1 nM probe, 37 C, 20 min; ComR dialyzed into PBS pH …
# [4] = system: ComR; assay: Fluorescence polarization competition assay with unlabeled DNA probes; type: binding; conditions: 1.5 µM ComR, 10 µM ComS or XIP, 1 nM labeled PcomX DNA; PcomS vs PcomX
# Procedure: FIG 5 ComS and XIP interact with ComR to bind the comX promoter. A fluorescence polarization assay testing interaction of ComS and XIP peptides with ComR and the PcomX transcriptional activation site was performed. The DNA probe was labeled with a Bodipy FL-X fluorophore. (A) Titration of ComR into a solution containing 10 µM XIP (blue) or full-length ComS (green), labeled DNA probe (1 nM), and 0.05 mg ml^−^1 salmon DNA. The negative control (black) contained no ComS or XIP peptide. (B) Competition assay in which unlabeled promoter sequence DNA was titrated into a solution containing ComR (1.5 µM), fluorescent DNA probe (1 nM), and peptide (either ComS or XIP, 10 µM). Unlabeled PcomX DNA was used with XIP (blue) and ComS (green). An unlabeled PcomS probe was also tested for its ability to compete with the fluorescent PcomX probe in the presence of XIP (red) and ComS (gold). […]
# Competing unlabeled probe assays were performed with 1.5 µM ComR in the same buffer containing 1 nM PcomX fluorescent DNA and 10 µM SHP (either ComS or XIP). […] Reaction mixtures were again incubated at 37°C for 20 min before polarization readings were taken. In all FP experiments, reading was performed three times on the same plate to estimate instrument error. […]
# [5] = biological target: T1, ComR;ComS (Streptococcus mutans …, UniProt Q8DWI6; 1-304;, |); assay: fluorescence polarization; 10 uM ComS; k2 of two-step model (k1 = 3.2 uM, n = 2.5), global fit with competition; not precisely determined, Text S3 gives k2 range 30-200 nM; Previously described reaction buffer (ref 53; composition not given) + 1 mM EDTA, 0.05 mg/ml salmon DNA, 1 nM probe, 37 C, 20 min; ComR dialyzed into PBS pH 7.4; conditions: tags: His6 tag (pET-45b(+), N-terminal) cleaved with EKMax;; chain copies: 2;2; label: 5' Bodipy FL-X; hairpin, 20 bp stem, CCCCC loop
# [6] = biological target: T1, ComR;ComS; assay: competition (fluorescence polarization); 1.5 uM ComR, 10 uM ComS, 1 nM labeled PcomX; affinity appears identical to PcomX; Previously described reaction buffer (ref 53; composition not given) + 1 mM EDTA, 0.05 mg/ml salmon DNA, 1 nM probe, 37 C, 20 min; ComR dialyzed into PBS pH 7.4; conditions: tags: His6 tag (pET-45b(+), N-terminal) cleaved with EKMax;; chain copies: 2;2; hairpin, 20 bp stem, CCCCC loop
molecule,measurement,setting,value
"ComR (native, histidine tag cleaved) (receptor)",Kd,[1],7300 nM
same,"n (order of multimerization of the ComR/peptide complex, two-step model)",[1],2.4
same,Kd,[2],3200 nM
same,"n (order of multimerization of the ComR/peptide complex, two-step model)",[2],2.5
ATGGGACATTTATGTCCTGTCCCCCACAGGACATAAATGTCCCAT [PcomX stem-loop probe],Kd,[3],33 nM
"PcomX: self-annealing stem-loop DNA, 5′-ATGGGACATTTATGTCCTGTCCCCCACAGGACATAAATGTCCCAT-3′ (5′-Bodipy FL-X in labeled probe) (DNA, 5' {BodipyFLX}, backbone and methylation of C not given here)",affinity of unlabeled probe for ComR by competition,[4],appear to have identical levels of affinity for ComR
ATGGGACATTTATGTCCTGTCCCCCACAGGACATAAATGTCCCAT (structured_DNA) [PcomX stem-loop probe],Kd,[5],2.2 nM
"ACGGGACATAAATGTCCTGTCCCCCACAGGACATTTATGTCCCGT (structured_DNA) [PcomS stem-loop, unlabeled]",binding result,[6],binds
